Experimental data as given in PMC10359615, “Mechanistic insight into AP-endonuclease 1 cleavage of abasic sites at stalled replication fork mimics”.

Assays:
[1] = target: APE1Dead (catalytically dead APE1) (human, UniProt P27695 1-318, D210N;E96Q); test: competition; FRET; DNA pre-saturated with 75 nM Cy5-RPA; APE1Dead completely exchanges for RPA; EMSA: 50 mM Tris pH 8, 1 mM EDTA, 0.2 mg/ml BSA, 1 mM DTT, 5% sucrose, room temperature, 5 nM DNA; FRET: 20 mM HEPES pH 7.5, 150 mM KCl, 5 mM MgCl2, 5 mM CaCl2, 1 mM DTT, ionic strength 200 mM with KCl, 23 C; details: protein: recombinant; label: Cy3 at primer 3' end; 3' recessed primer-template junction, 5' ssDNA overhang 33 nt
[2] = target: RPA (RPA1/RPA2/RPA3 heterotrimer) (human, UniProt P27694;P15927;P35244 1-616;1-270;1-121); test: mass photometry; 4:1 RPA:DNA; a single RPA per DNA; EMSA: 50 mM Tris pH 8, 1 mM EDTA, 0.2 mg/ml BSA, 1 mM DTT, 5% sucrose, room temperature, 5 nM DNA; FRET: 20 mM HEPES pH 7.5, 150 mM KCl, 5 mM MgCl2, 5 mM CaCl2, 1 mM DTT, ionic strength 200 mM with KCl, 23 C; details: protein: recombinant; copies: 1;1;1
RPA (RPA1/RPA2/RPA3 heterotrimer), sequence (P27694 whole entry, chain 1 of 3): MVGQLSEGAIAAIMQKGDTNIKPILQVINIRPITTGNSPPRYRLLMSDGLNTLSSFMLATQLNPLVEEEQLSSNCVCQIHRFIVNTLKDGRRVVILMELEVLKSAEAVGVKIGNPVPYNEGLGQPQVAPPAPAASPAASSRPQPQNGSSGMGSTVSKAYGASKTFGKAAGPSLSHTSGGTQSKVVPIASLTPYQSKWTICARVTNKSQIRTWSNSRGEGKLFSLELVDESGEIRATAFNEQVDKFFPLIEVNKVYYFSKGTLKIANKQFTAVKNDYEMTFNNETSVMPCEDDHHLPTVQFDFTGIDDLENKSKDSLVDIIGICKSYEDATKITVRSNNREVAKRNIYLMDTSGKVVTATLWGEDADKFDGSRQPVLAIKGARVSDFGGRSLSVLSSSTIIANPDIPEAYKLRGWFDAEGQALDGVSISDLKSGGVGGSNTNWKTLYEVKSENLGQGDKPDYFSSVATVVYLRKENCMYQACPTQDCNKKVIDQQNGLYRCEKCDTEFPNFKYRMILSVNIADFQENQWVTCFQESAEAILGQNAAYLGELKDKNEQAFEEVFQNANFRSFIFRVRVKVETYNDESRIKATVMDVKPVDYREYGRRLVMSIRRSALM
RPA (RPA1/RPA2/RPA3 heterotrimer), sequence (P15927 whole entry, chain 2 of 3): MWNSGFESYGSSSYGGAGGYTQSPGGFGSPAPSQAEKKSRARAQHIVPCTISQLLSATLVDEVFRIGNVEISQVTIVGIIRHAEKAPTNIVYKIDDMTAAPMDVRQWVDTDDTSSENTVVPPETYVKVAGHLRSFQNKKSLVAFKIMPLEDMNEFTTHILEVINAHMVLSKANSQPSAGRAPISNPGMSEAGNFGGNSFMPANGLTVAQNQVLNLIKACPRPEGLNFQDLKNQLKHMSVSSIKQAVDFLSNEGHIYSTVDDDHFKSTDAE
RPA (RPA1/RPA2/RPA3 heterotrimer), sequence (P35244 whole entry, chain 3 of 3): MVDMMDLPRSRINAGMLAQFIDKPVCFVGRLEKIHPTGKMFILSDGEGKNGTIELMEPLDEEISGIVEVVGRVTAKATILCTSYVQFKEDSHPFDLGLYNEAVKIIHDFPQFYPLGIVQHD

APE1Dead (catalytically dead APE1), sequence (P27695 whole entry E96Q/D210N): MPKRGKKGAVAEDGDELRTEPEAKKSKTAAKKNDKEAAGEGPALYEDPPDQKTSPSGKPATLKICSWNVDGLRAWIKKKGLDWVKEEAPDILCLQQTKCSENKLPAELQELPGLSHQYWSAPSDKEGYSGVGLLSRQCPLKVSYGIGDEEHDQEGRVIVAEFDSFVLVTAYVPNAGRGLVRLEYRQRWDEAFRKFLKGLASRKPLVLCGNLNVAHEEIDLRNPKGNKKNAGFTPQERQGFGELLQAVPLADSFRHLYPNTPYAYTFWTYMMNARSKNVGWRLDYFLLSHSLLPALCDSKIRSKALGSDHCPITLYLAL

B1: Cy3-Rec-PTJ (mixed)
DNA 1: ACTCCTTCCGCACGTAATTTTTGACGCAC
DNA 2: TGACTCTTCTGCGTTCGCTGATGCGCCGACGGGTGCGTCAAAAATTACGTGCGGAAGGAGT
modifications: THF 7 nt from the junction
binding result [1]: binds

TTTTTTTTTTTTTTTTTTTTTTTTTTTTTTTTTTT (ssDNA) [(dT)35]
binding result [2]: binds
